These are literature values, as cited in PMC4920389.

In the data set the target is Glu23 (UniProt position 23, FAVDEENKIGQ). The data set can be described thus: stability. As to conditions: native (folded) state.

For the substance “MNEI (single-chain monellin) (Dioscoreophyllum cumminsii)”, the pKa entry is “approximately 7.5”.
